Experimental data reported in the supplement of paper PMC9170038.

System: MS2 coat protein
Experiment: apparent KD of MS2 coat protein; designed switch direction (-1 OFF switch, 1 ON switch): -1; higher = weaker reporter binding
Method in brief: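 An oligonucleotide input, 200 uM small-molecule ligand, or no input was present during titration of SNAP-549-labelled MS2 coat protein, which was doubled from 0.7 or 1.5 nM to 3 µM. Designed RNA switches had been transcribed on Illumina chips by stalled E. coli RNA polymerase. Apparent KD per design is the median over clusters of curves fitted to normalised cluster fluorescence.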

[1] = Eterna round: R95, input ligand: microRNA oligo, concentration not stated
[2] = Eterna round: R95, input ligand: FMN 200 uM
[3] = Eterna round: R95, input ligand: none
[4] = input ligand: microRNA oligo, concentration not stated

| Sequence | apparent KD of MS2 coat protein [1] | apparent KD of MS2 coat protein (input ligand: FMN 200 uM) | apparent KD of MS2 coat protein (input ligand: none) | apparent KD of MS2 coat protein [2] | apparent KD of MS2 coat protein [3] | apparent KD of MS2 coat protein [4] |
| --- | --- | --- | --- | --- | --- | --- |
| GAUGGAGAGCAGGAUAUCUUGGGUAAGCAUCAUAGAGAAGGGCUCACAUGAGGAUCACCCAUGUGGUCCAAGAA [Usbiridi] (puzzle: Exclusion 6) | 14.1 nM | – | – | – | – | – |
| AAUACAAGCUAUUGAUCCCACAUGAGGAUCACCCAUGUAUAUGCCGGUGACACCUGCAUGACGAUAGCUCGUCUUAU [Sensor-V1 #59] (Eterna round: R97, puzzle: Sensor, turn-off variant 1) | – | 577 nM | 758 nM | – | – | – |
| ACCAUGUAAGGAUAUGGUGGCUGUGAACAGGCCUGAUAAAUCUAGAAGGUACAUGAGGAUCACCCAUGUGAUGA [Eternabot (L2) Solution 84] (Eterna round: R97, puzzle: Exclusion 4) | – | 54 nM | 32.7 nM | – | – | – |
| CGUCAGUGAGGAUAUGGUAUCGUUUACAUGAGGAUCACCCAUGUUUCAUGGGACUAGAGACUAGAAGGUACUGACG [EX5 #43] (Eterna round: R97, puzzle: Exclusion 5) | – | 408 nM | 579 nM | – | – | – |
| GUAGGGUCAGGAUAUACUGGCUGAGGGAUGUAUUGUAGUUGGUAGAAGGGACAUGAGGAUCACCCAUGUAAGUA [JR_Exclu4_Sub057] (puzzle: Exclusion 4) | 33.2 nM | – | – | – | – | – |
| UUUUAACAUGAGGAUCACCCAUGUGAGGAUAUCGAAAUUUUUAUUAAUAUUAAUAAAACGAGAAGGCACAUUUU [JMF 12] (puzzle: Exclusion 1) | 58.3 nM | – | – | – | – | – |
| GGAACGCGAGGAUAUACAAGGCCGGAAACGGAAAUAGCCUCACAUGAGGAUCACCCAUGUAGAAGGCGCGGAGA [AK-MS2ROC-r4-exclusion2-26] (Eterna round: R97, puzzle: Exclusion 2) | – | 175 nM | 22.1 nM | – | – | – |
| ACAAGCUUGUAAUGAUAGAACAUGAGGAUCACCCAUGUAAAUGGAAGAACCAAUUAGAUAAGAUAAACUCGUCUUAU [JR_STOV1_Sub002] (Eterna round: R97, puzzle: Sensor, turn-off variant 1) | – | 59.1 nM | 69.5 nM | – | – | – |
| AAGCCCUGAGGAUAUCCCAACUCGCACAUGAGGAUCACCCAUGUCCUCCUCCGGGCUUCGGGAGAAGGCAGGUCUC [Megrez-7.8] (Eterna round: R97, puzzle: Exclusion 5) | – | 186 nM | 25.7 nM | – | – | – |
| ACUCGUAACUAGGAUAUCCGAAAUAAACGAGGAGGAGAAGGAGUUACAUGAGGAUCACCCAUGUGAUAUAAAGA [Edtisoed] (puzzle: Exclusion 6) | 15.3 nM | – | – | 47 nM | 17.6 nM | – |
| AGAUAGUGGUGAGGAUAUCAGAAUAGAAAGAAAUGAGAAGGCACACAUGAGGAUCACCCAUGUGAGGUCUUGAGACUACAUGGU [Prohibition 40 - Jieux - Exclusion NG 1] (Eterna round: R96, puzzle: Exclusion NG 1) | – | 21.2 nM | 17.3 nM | – | – | 12.5 nM |
| ACCUCACAUGAGGAUCACCCAUGUUAGGAUAUCUCGGUGCCCUGCAGGCAGUGGCACCAGAGAAGGAACGUGCA [Anbearqu] (puzzle: Exclusion 1) | 17.2 nM | – | – | – | – | – |
| ACAUGAGGAUCACCCAUGUCCGGCUGGUCUGUUCCGGUUGUCGAGGAUAUAGUUCGGUGUUCGCGCUAGAAGGUGGGAGCUGGA [Aenatbe mod 54] (Eterna round: R96, puzzle: Exclusion NG 3) | – | 186 nM | 136 nM | – | – | 103 nM |
| CGGGCGUGAGGAUAUCCAUCUGGAUCAGACUAGAUCCUGAUGGAGAAGGCACAUGAGGAUCACCCAUGUACCCG [Eli 4x 4.50] (Eterna round: R97, puzzle: Exclusion 4) | – | 22.2 nM | 18.6 nM | – | – | – |
| GAUUAUGCGAGCUUUAGGGACAUGAGGAUCACCCAUGUUCGUCUUGUUGAUCUAGGUGCGCUAACAUACCUAAAUCU [JMF 48] (puzzle: Sensor v3, turn-off variant 1) | 30.5 nM | – | – | 23.5 nM | 23.4 nM | – |
| UAAUACAAGUAAAGAUCCUACAUGAGGAUCACCCAUGUGCUCGUCUUGUAAAGUACUAUCACGAAAGUGAUAGUACU [Mat - Sensor v3 - turn-off var 1 - Eli Mod - D86] (puzzle: Sensor v3, turn-off variant 1) | 22 nM | – | – | 30.3 nM | 44.8 nM | – |
| CUGUUUUUCGCAGGAUAUGCUCCUCCAUUAUUUGCAGAAGGGCGUUGAACAUGAGGAUCACCCAUGUAUGGAAAUGACUAUUGC [JR_ExcNG1_Sub068] (Eterna round: R96, puzzle: Exclusion NG 1) | – | 22.1 nM | 18.2 nM | – | – | 14.9 nM |
| AGAGUGCUGCGAGGAUAUACAUGAGGAUCACCCAUGUUUACCUGUGAGGCAAAGCCUCACAGGUUGUAGAAGGCGCAGUACUCA [Mat - Exclusion NG 2 - Mod of JL - D42] (Eterna round: R96, puzzle: Exclusion NG 2) | – | 9.39 nM | 19.4 nM | – | – | 10.1 nM |

| Sequence | apparent KD of MS2 coat protein [1] | apparent KD of MS2 coat protein (input ligand: FMN 200 uM) | apparent KD of MS2 coat protein (input ligand: none) | apparent KD of MS2 coat protein [2] | apparent KD of MS2 coat protein [3] | apparent KD of MS2 coat protein [4] |
| --- | --- | --- | --- | --- | --- | --- |
| AGAGAGUCAGGAUAUCGGAGGGAGAGGAGAGGAGAGAGGGACGAGAAGGGACAUGAGGAUCACCCAUGUAGGUG [JR_Exclusion4)Sub017] (puzzle: Exclusion 4) | 437 nM | – | – | 263 nM | 663 nM | – |
| AAAGAAGAGAGAAAAUAACACAUGAGGAUCACCCAUGUGAGAAGUUGAGGGUGAUACAGGCUUUUUGCUCGUCUUAU (puzzle: Sensor v3, turn-off variant 1) | 263 nM | – | – | 233 nM | 332 nM | – |
| CUGGACCCGGUAGGAUAUAUUGUGGGCGGGCGUGGAACGACAUGAGGAUCACCCAUGUGAUUGAGGUAGAAGGGCCGAGAGGUU [Excl-NG2-LRO18] (Eterna round: R96, puzzle: Exclusion NG 2) | – | 52.7 nM | 61.8 nM | – | – | 33.8 nM |
| UUUAAACAUGAGGAUCACCCAUGUGAGGAUAUACGAAUGCAGACACACACGGAUGCAAGUAGAAGGCACAACGC [Design #11] (Eterna round: R97, puzzle: Exclusion 1) | – | 29.4 nM | 25 nM | – | – | – |
| ACUUACCAUGUCAGGAUAUGUACUUAGAACGCGAUGCAGAAGGGACAUGAGGAUCACCCAUGUAAUGUCUGAUA [Eternabot (L2) Solution 2] (Eterna round: R97, puzzle: Brourd's mod of Exclusion 4) | – | 51.6 nM | 21.1 nM | – | – | – |
| AUAUAGAUAGUCAGGAUAUGCUAGUGAUAACAGUAGCAGAAGGGACAUGAGGAUCACCCAUGUGGAUAGCGCAC [Brourd's EX4 #5] (Eterna round: R97, puzzle: Brourd's mod of Exclusion 4) | – | 139 nM | 39.7 nM | – | – | – |
| CAGGAUAGAGGAUAUACAUAGAUACAGAUUCAUGUGAUCCUACAUGAGGAUCACCCAUGUAGAAGGCUAACCUG [Fiskers Ex 2 - 24] (puzzle: Exclusion 2) | 306 nM | – | – | – | – | – |
| GCUGGUCAAGGAUAUACAUUCGUGCUUCGGCACGUAAGAUCACAUGAGGAUCACCCAUGUAGAAGGUGACCAGC [E2/5-C1] (Eterna round: R97, puzzle: Exclusion 2) | – | 700 nM | 112 nM | – | – | – |
| UACAUGAGGAUCACCCAUGUUUUAUCAUGUGUAAUAAUAAUGUAGGAUAUGUAUUUAUUUAUUUAACAGAAGGACAAUAAUAAA [JMF's solution 3] (Eterna round: R96, puzzle: Exclusion NG 3) | – | 462 nM | 423 nM | – | – | 435 nM |
| UGGGUCACAGGAUAUACAUGAGGAUCACCCAUGUCGUAUUUCGUGGCGGAGAGCUCGAGUAGAAGGGUGCAUCC [Malarala] (Eterna round: R96, puzzle: Exclusion 3) | – | 297 nM | 148 nM | – | – | 58.9 nM |
| GGUGGACAUGAGGAUCACCCAUGUGAGGAUAUCGGCUGGUACGUGGUGGCUGGCAUCUCGAGAAGGCACAUAGU [Exclusion 1 V66] (puzzle: Exclusion 1) | 83.6 nM | – | – | – | – | – |
| GUGGUACAUGAGGAUCACCCAUGUUAGGAUAUCGCGUGAGGUAAAACUUACACACACACGAGAAGGGACGACAU (puzzle: Exclusion 1) | 64.4 nM | – | – | – | – | – |
| GUGAAACAUGAGGAUCACCCAUGUGAGGAUAUGUUUUAGUAAUGAUGAAAGUAAAUCUACAGAAGGCACAAUGG [Mat - Mod of JL D70] (puzzle: Exclusion 1) | 77.9 nM | – | – | – | – | – |
| GGUCGUAUGAGUAGUCCUCAUUGAAGAGAUUGGUAAGAUACAUGAGGAUCACCCAUGUUUGAACAAGCUUUUGCUCU [JR_Sv3TOV2_Sub008] (puzzle: Sensor v3, turn-off variant 2) | 41.9 nM | – | – | 96 nM | 120 nM | – |
| AGCUGUGGCCGAGGAUAUCUACCUUCAAUAACCGAAAUAUAAUCGGACAUGAGGAUCACCCAUGUAGAGAAGGCGGUCUCAGCA [Eli eng2 - 086] (Eterna round: R96, puzzle: Exclusion NG 2) | – | – | – | – | – | 10.9 nM |
| AUGCCCUGAGGAUAUCUCAUCCCGCACAUGAGGAUCACCCAUGUUCUCCUCCGGGCUCCGAGAGAAGGCAGGCCUA [Armus7] (Eterna round: R97, puzzle: Exclusion 5) | – | 80.1 nM | 53.5 nM | – | – | – |
| GUGGUGGGUUUUCCGAGUAACAUGAGGAUCACCCAUGUAUUAGUUUGAUGUAUCAAGCGAAUGGCUCGUCUUAUAUA [JR_SV3TOV1_Sub045] (puzzle: Sensor v3, turn-off variant 1) | 14.5 nM | – | – | 128 nM | 107 nM | – |
